In patent US20140045176:

Experiments:
Assay in all cases: cell_activity
[1] = test system: ZFN-224 R (CCR5) (Artificial Sequence); conditions: as ZFN pair; T7E1, sorted RFP+GFP+ HEK293; unsorted 12%
[2] = test system: CMAH-ZFN L (Artificial Sequence); conditions: as ZFN pair; T7E1, hygromycin-selected porcine ear cells; untreated 3.1%
[3] = test system: Z891 L (CCR5 ZFN) (Artificial Sequence); conditions: as ZFN pair; T7E1, sorted RFP+GFP+ HEK293; unsorted 0.8%
[4] = test system: Thumpd3 ZFN L (Artificial Sequence); conditions: as ZFN pair; T7E1, sorted RFP+GFP+ mouse iPS-derived fibroblasts; unsorted 0.5%
[5] = test system: CMAH-ZFN R (Artificial Sequence); conditions: as ZFN pair; T7E1, hygromycin-selected porcine ear cells; untreated 3.1%
[6] = test system: ZFN-224 L (CCR5) (Artificial Sequence); conditions: as ZFN pair; T7E1, sorted RFP+GFP+ HEK293; unsorted 12%
[7] = test system: Thumpd3 ZFN R (Artificial Sequence); conditions: as ZFN pair; T7E1, sorted RFP+GFP+ mouse iPS-derived fibroblasts; unsorted 0.5%
[8] = test system: Z891 R (CCR5 ZFN) (Artificial Sequence); conditions: as ZFN pair; T7E1, sorted RFP+GFP+ HEK293; unsorted 0.8%
[9] = test system: CCR5 TALEN R (Artificial Sequence); conditions: as TALEN pair; T7E1, sorted RFP+GFP+ HEK293; unsorted 0.5%; 30 C culture
[10] = test system: CCR5 TALEN L (Artificial Sequence); conditions: as TALEN pair; T7E1, sorted RFP+GFP+ HEK293; unsorted 0.5%; 30 C culture

AAACTGCAAAAG (double strand) [ZFN-224_R half-site]
activity [1]: 69 % mutation

AAGCAGGACCGA (double strand) [CMAH-ZFN_L half-site]
activity [2]: 12.1 % mutation

ATAGATGATGGG (double strand) [Z891_L half-site]
activity [3]: 8.7 % mutation

CGAGCACGCCGC (double strand) [Thumpd3_L half-site]
activity [4]: 46 % mutation

CGAGGATGGTGG (double strand) [CMAH-ZFN_R half-site]
activity [5]: 12.1 % mutation

GATGAGGATGAC (double strand) [ZFN-224_L half-site]
activity [6]: 69 % mutation

GGAGACCGGAAG (double strand) [Thumpd3_R half-site]
activity [7]: 46 % mutation

GTCGGGGAGAAG (double strand) [Z891_R half-site]
activity [8]: 8.7 % mutation

TAGTTTCTGAACTTCTCCCC (double strand) [TALEN_R half-site]
activity [9]: 4.3 % mutation

TGCATCAACCCCATCATC (double strand) [TALEN_L half-site]
activity [10]: 4.3 % mutation
